These results are taken from US20140219913A1 (AbbVie / Abbott, published 2014).

The target in one test is TNF-alpha. As to the kind of experiment: cell-based or functional assay.
Another test deals with NGF. As to the kind of experiment: cell-based or functional assay.
Test [1] concerns the target T1, Recombinant human B7-1/CD80 Fc chimera (Cat. 140-B1-100, R&D Systems) (human, UniProt P33681 35-242).
T1 construct: extracellular domain; also called B7-1 antigen; Fc part of the bought chimera not given; not described
T1 sequence (looked up): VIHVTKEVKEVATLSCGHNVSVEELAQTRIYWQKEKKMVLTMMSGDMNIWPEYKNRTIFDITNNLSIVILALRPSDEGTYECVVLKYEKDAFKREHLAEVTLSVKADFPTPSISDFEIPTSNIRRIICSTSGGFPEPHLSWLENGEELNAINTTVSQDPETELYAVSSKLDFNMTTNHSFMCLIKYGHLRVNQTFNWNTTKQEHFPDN
In words: direct bind ELISA, coated recombinant human B7-1/CD80 Fc chimera. The protocol: Enzyme Linked Immunosorbent Assays (ELISA) to screen for antibodies that bind a desired target antigen were performed as follows. High bind ELISA plates (Corning Costar #3369, Acton, Mass.) were coated with 100 μL/well of 10 μg/ml of desired target antigen (R&D Systems, Minneapolis, Minn.) or desired target antigen extra-cellular domain/FC fusion protein (R&D Systems, Minneapolis, Minn.) or monoclonal mouse anti-polyHistidine antibody (R&D Systems #MAB050, Minneapolis, Minn.) in phosphate buffered saline (10×PBS, Abbott Bioresearch Center, Media Prep#MPS-073, Worcester, Mass.) overnight at 4° C. Plates were washed four times with PBS containing 0.02% Tween 20. Plates were blocked by the addition of 300 μL/well blocking solution (non-fat dry milk powder, various retail suppliers, diluted to 2% in PBS) for ½ hour at room temperature. Plates were washed four times after blocking with PBS containing 0.02% Tween 20.
One hundred microliters of 10 ng/mL goat anti-human IgG-FC specific HRP conjugated antibody (Southern Biotech #2040-05, Birmingham, Ala.) was added to each well of the desired target antigen plate or anti-polyHistidine antibody/Histidine tagged desired target antigen plate. Alternatively, one hundred microliters of 10 ng/mL goat anti-human IgG-kappa light chain specific HRP conjugated antibody (Southern Biotech #2060-05 Birmingham, Ala.) was added to each well of the desired target antigen/FC fusion plate and incubated for 1 hour at room temperature. Plates were washed 4 times with PBS containing 0.02% Tween 20.
One hundred microliters of enhanced TMB solution (Neogen Corp. #308177, K Blue, Lexington, Ky.) was added to each well and incubated for 10 minutes at room temperature. The reaction was stopped by the addition of 50 μL 1N sulphuric acid. Plates were read spectrophotometrically at a wavelength of 450 nm

Test [2] deals with T2, Recombinant human B7-2/CD86 Fc chimera (Cat. 141-B2-100, R&D Systems) (human, UniProt P42081 26-245).
T2 construct: Fc part of the bought chimera not given; not described
T2 sequence (looked up): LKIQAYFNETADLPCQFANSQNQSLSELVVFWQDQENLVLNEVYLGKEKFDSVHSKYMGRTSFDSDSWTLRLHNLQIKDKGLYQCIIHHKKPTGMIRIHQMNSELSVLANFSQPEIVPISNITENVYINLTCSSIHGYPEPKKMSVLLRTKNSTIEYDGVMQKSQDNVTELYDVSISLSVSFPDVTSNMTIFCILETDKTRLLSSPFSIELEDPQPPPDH
As to the kind of experiment: competitive ELISA; coated CD28 Fc, biotinylated B7-2/CD86 Fc, construct titrated. The protocol: (§1) ELISA plates (Nunc, MaxiSorp, Rochester, N.Y.) were incubated overnight at 4° C. with Recombinant Human CD28 Fc Chimera (Cat. #342-CD-200). Plates were washed three times in washing buffer (PBS containing 0.05% Tween 20), and blocked for 1 hour at 25° C. in blocking buffer (PBS containing 1% BSA). Wells were washed three times, and serial dilutions of each antibody or DVD-Ig in PBS containing 0.1% BSA were added to the wells and incubated at 25° C. for 1 hour. The wells were washed three times, and biotinylated antigen (2 nM) was added to the plates and incubated for 1 hour at 25° C. The wells were washed three times and incubated for 1 hour at 25° C. with streptavidin-HRP (KPL #474-3000, Gaithersburg, Md.). The wells were washed three times, and 100 μl of ULTRA-TMB ELISA (Pierce, Rockford, Ill.) was added per well. Following color development the reaction was stopped with 1N HCL and absorbance at 450 nm was measured. Recombinant human B7-1/CD80 Fc chimera (Cat. 140-B1-100, R&D Systems, Minneapolis, Minn.) was used.
Recombinant human B7-2/CD86 Fc chimera (Cat. 141-B2-100, R&D Systems, Minneapolis, Minn.) was used.
Background: In an ELISA, binding on a coated surface is turned into a signal by an enzyme label.

In test [3] the target is T1, Recombinant human B7-1/CD80 Fc chimera …. As to the kind of experiment: competitive ELISA; coated CD28 Fc, biotinylated B7-1/CD80 Fc (2 nM), construct titrated. The protocol:
as §1

B1: RAB030 (other)
VH: LPAQVAFTPYAPEPGSTCRLREYYDQTAQMCCSKCSPGQHAKVFCTKTSDTVCDSCEDSTYTQLWNWVPECLSCGSRCSSDQVETQACTREQNRICTCRPGWYCALSKQEGCRLCAPLRKCRPGFGVARPGTETSDVVCKPCAPGTFSNTTSSTDICRPHQICNVVAIPGNASMDAVCTSTSPTRSMAPGAVHLPQPVSTRSQHTQPTPEPSTAPSTSFLLPMGPSPPAEGSTGDASTKGPQVQLQESGPGLVKPSETLSLTCTVSGFSLIGYDLNWIRQPPGKGLEWIGIIWGDGTTDYNSAVKSRVTISKDTSKNQFSLKLSSVTAADTAVYYCARGGYWYATSYYFDYWGQGTLVTVSS
VL: DIQMTQSPSSLSASVGDRVTITCRASQSISNNLNWYQQKPGKAPKLLIYYTSRFHSGVPSRFSGSGSGTDFTFTISSLQPEDIATYYCQQEHTLPYTFGQGTKLEIKR
In the case of B1, the “N-terminal L929 Assay (EC50, pM)” value with TNF-alpha was found to be 50 pM. Also, in the test with NGF, the “C-terminal Bioassay Mean (IC50, nM): Cell Impedance assay” value was 1.6 nM and the “C-terminal Bioassay Mean (IC50, nM): pERK assay” value is 0.6 nM.

B2: RAB028 (other)
VH: EVQLVQSGAEVKKPGASVKVSCKASGYTFTKYWLGWVRQAPGQGLEWMGDIYPGYDYTHYNEKFKDRVTLTTDTSTSTAYMELRSLRSDDTAVYYCARSDGSSTYWGQGTLVTVSS
VL: LPAQVAFTPYAPEPGSTCRLREYYDQTAQMCCSKCSPGQHAKVFCTKTSDTVCDSCEDSTYTQLWNWVPECLSCGSRCSSDQVETQACTREQNRICTCRPGWYCALSKQEGCRLCAPLRKCRPGFGVARPGTETSDVVCKPCAPGTFSNTTSSTDICRPHQICNVVAIPGNASMDAVCTSTSPTRSMAPGAVHLPQPVSTRSQHTQPTPEPSTAPSTSFLLPMGPSPPAEGSTGDTVAAPDVLMTQTPLSLPVTPGEPASISCTSSQNIVHSNGNTYLEWYLQKPGQSPQLLIYKVSNRFSGVPDRFSGSGSGTDFTLKISRVEAEDVGVYYCFQVSHVPYTFGGGTKVEIKR
B2: the “N-terminal L929 Assay (EC50, pM)” value in the test with TNF-alpha was 90 pM.

B3: RAB027 (other)
VH: LPAQVAFTPYAPEPGSTCRLREYYDQTAQMCCSKCSPGQHAKVFCTKTSDTVCDSCEDSTYTQLWNWVPECLSCGSRCSSDQVETQACTREQNRICTCRPGWYCALSKQEGCRLCAPLRKCRPGFGVARPGTETSDVVCKPCAPGTFSNTTSSTDICRPHQICNVVAIPGNASMDAVCTSTSPTRSMAPGAVHLPQPVSTRSQHTQPTPEPSTAPSTSFLLPMGPSPPAEGSTGDASTKGPEVQLVQSGAEVKKPGASVKVSCKASGYTFTKYWLGWVRQAPGQGLEWMGDIYPGYDYTHYNEKFKDRVTLTTDTSTSTAYMELRSLRSDDTAVYYCARSDGSSTYWGQGTLVTVSS
VL: DVLMTQTPLSLPVTPGEPASISCTSSQNIVHSNGNTYLEWYLQKPGQSPQLLIYKVSNRFSGVPDRFSGSGSGTDFTLKISRVEAEDVGVYYCFQVSHVPYTFGGGTKVEIKR
For B3, the “N-terminal L929 Assay (EC50, pM)” value with TNF-alpha was 30 pM.

B4: RAB014 (other)
VH: AMHVAQPAVVLASSRGIASFVCEYASPGKYTEVRVTVLRQADSQVTEVCAATYMMGNELTFLDDSICTGTSSGNQVNLTIQGLRAMDTGLYICKVELMYPPPYYEGIGNGTQIYVIDPEPCPDSDASTKGPSVFPLAPEVQLVQSGAEVKKPGASVKVSCKASGYTFTKYWLGWVRQAPGQGLEWMGDIYPGYDYTHYNEKFKDRVTLTTDTSTSTAYMELRSLRSDDTAVYYCARSDGSSTYWGQGTLVTVSS
VL: DVLMTQTPLSLPVTPGEPASISCTSSQNIVHSNGNTYLEWYLQKPGQSPQLLIYKVSNRFSGVPDRFSGSGSGTDFTLKISRVEAEDVGVYYCFQVSHVPYTFGGGTKVEIKR
notes: rDVD-Ig with LEA29Y on the heavy chain only and a long linker; also called RAB014H; RAB014L
In the case of B4, the half-maximal effective concentration (EC50) (as a rule, the concentration at which the effect is half-maximal) in test [1] was 1.5 nM; in test [2], 1.1 nM; in test [3] it was 1.7 nM.

B5: RAB020 (other)
VH: AMHVAQPAVVLASSRGIASFVCEYASPGKYTEVRVTVLRQADSQVTEVCAATYMMGNELTFLDDSICTGTSSGNQVNLTIQGLRAMDTGLYICKVELMYPPPYYEGIGNGTQIYVIDPEPCPDSDQEPKSSDKTHTSPEVQLVQSGAEVKKPGASVKVSCKASGYTFTKYWLGWVRQAPGQGLEWMGDIYPGYDYTHYNEKFKDRVTLTTDTSTSTAYMELRSLRSDDTAVYYCARSDGSSTYWGQGTLVTVSS
VL: DVLMTQTPLSLPVTPGEPASISCTSSQNIVHSNGNTYLEWYLQKPGQSPQLLIYKVSNRFSGVPDRFSGSGSGTDFTLKISRVEAEDVGVYYCFQVSHVPYTFGGGTKVEIKR
notes: rDVD-Ig with LEA29Y on the heavy chain only and a QH linker; also called RAB020H; RAB020L
B5: the EC50 in test [1] came out at 1.2 nM; in test [2], 1 nM; in test [3], 1.7 nM.

B6: RAB031 (other)
VH: QVQLQESGPGLVKPSETLSLTCTVSGFSLIGYDLNWIRQPPGKGLEWIGIIWGDGTTDYNSAVKSRVTISKDTSKNQFSLKLSSVTAADTAVYYCARGGYWYATSYYFDYWGQGTLVTVSS
VL: LPAQVAFTPYAPEPGSTCRLREYYDQTAQMCCSKCSPGQHAKVFCTKTSDTVCDSCEDSTYTQLWNWVPECLSCGSRCSSDQVETQACTREQNRICTCRPGWYCALSKQEGCRLCAPLRKCRPGFGVARPGTETSDVVCKPCAPGTFSNTTSSTDICRPHQICNVVAIPGNASMDAVCTSTSPTRSMAPGAVHLPQPVSTRSQHTQPTPEPSTAPSTSFLLPMGPSPPAEGSTGDTVAAPDIQMTQSPSSLSASVGDRVTITCRASQSISNNLNWYQQKPGKAPKLLIYYTSRFHSGVPSRFSGSGSGTDFTFTISSLQPEDIATYYCQQEHTLPYTFGQGTKLEIKR
For the molecule B6, in the test with TNF-alpha, the “N-terminal L929 Assay (EC50, pM)” value worked out at 120 pM. Moreover, in the test with NGF, the “C-terminal Bioassay Mean (IC50, nM): Cell Impedance assay” value was 1.1 nM and the “C-terminal Bioassay Mean (IC50, nM): pERK assay” value amounted to 0.5 nM.

B7: RAB013 (other)
VH: AMHVAQPAVVLASSRGIASFVCEYASPGKYTEVRVTVLRQADSQVTEVCAATYMMGNELTFLDDSICTGTSSGNQVNLTIQGLRAMDTGLYICKVELMYPPPYYEGIGNGTQIYVIDPEPCPDSDASTKGPSVFPLAPEVQLVQSGAEVKKPGASVKVSCKASGYTFTKYWLGWVRQAPGQGLEWMGDIYPGYDYTHYNEKFKDRVTLTTDTSTSTAYMELRSLRSDDTAVYYCARSDGSSTYWGQGTLVTVSS
VL: AMHVAQPAVVLASSRGIASFVCEYASPGKYTEVRVTVLRQADSQVTEVCAATYMMGNELTFLDDSICTGTSSGNQVNLTIQGLRAMDTGLYICKVELMYPPPYYEGIGNGTQIYVIDPEPCPDSDTVAAPSVFIFPPDVLMTQTPLSLPVTPGEPASISCTSSQNIVHSNGNTYLEWYLQKPGQSPQLLIYKVSNRFSGVPDRFSGSGSGTDFTLKISRVEAEDVGVYYCFQVSHVPYTFGGGTKVEIKR
notes: rDVD-Ig with LEA29Y on both chains and long linkers; also called RAB013H; RAB013L
Turning to B7, the values for the EC50 in test [1], in test [2] and in test [3] were 21.2 nM, 0.5 nM and 2 nM, respectively.
